Assay results taken from the nanobody polyreactivity screen of Harvey et al. (2022).

Test: yeast display, Sf9 membrane polyspecificity reagent, FACS + sequencing; frameworks hold sequencing errors
In short: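 Galactose-induced (36–48 hours) yeast carrying a synthetic nanobody display library were exposed to 10% biotinylated, detergent-solubilized Sf9 membrane reagent at 4 °C for 1 hour. FACS followed streptavidin microbead enrichment, using low and high (top ~1%) gates for expression (anti-HA) and reagent binding (streptavidin). Colony PCR, MiSeq 2 × 250 sequencing and CDR-length filtering followed. Labels for polyreactivity reflect the gate of origin.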

Row | Sequence | polyreactivity (PSR sort gate)
1 | QVQLVESGGGLVQAGGSLRLSCAASGSTFSFYAMGWDRQAPGKERELVAAIRAGTRTYYADSVKGRFTISRDNAKNTVYLQMNSLKPEDTAVYYCAATRRRYPYYYWGQGTLVTVSS | high polyreactivity
2 | QVQLVESGGGLVQAGGSLRLSCAASGSTFSFYDMGWYRQAPGKETELVDAITGSGGTTYYADSVKGRFTISRDNAKNTVYLKMNSLIPEDTAVYFCAADSLESYPDYEYDYWGQGTQVTVSS | low polyreactivity
3 | QVQLVESGGGLVQAGGSLRLSCAASGSTFSGNVMGWYRQAPGKERALVAAIRRSSGSTYYADSVKGRFTISRDNAKNTVYLQMNSLKPEDTAVYYCATDVTKIRQGDYYYWGQGTQVTVSS | high polyreactivity
4 | QVQLVESGGGLVQAGGSLRLSCAASGSTFSGYAMGGYRQAPGKERELVAAISSSGGSTSYADSVKGRFTISRDNAKNTVYLQMNSLKPEDTAVYYCAARAKGYAHIRAYDYWGQGTQVTVSS | low polyreactivity
5 | QVQLVESGGGLVQAGGSLRLSCAASGSTFSGYAMGWSRQAPGKERELVASITSSGGSTYYADSVKGRFTISRDNAKNTVYLQMNSLKPEDTAVYYCAAAKSAMWGQGTQVTVSS | low polyreactivity
6 | QVQLVESGGGLVQAGGSLRLSCAASGSTFSGYDRGWYRQEPGKESEFVATITYSGGSTYYADSVKGRFTISRDNAKNTVYLQMNSLKPEDTAVYYCAADTPDAPDYSGLYYWGQGTQVTVSS | low polyreactivity
7 | QVQLVESGGGLVQAGGSLRLSCAASGSTFSGYVMGWYRQAPGKERELVAAITGRGGNTYYADSVKGRFTISRDNGKNTVYLQMNSLKPEDTAVYYCAAARRSYQYGYWGQGTQVTVSS | high polyreactivity
8 | QVQLVESGGGLVQAGGSLRLSCAASGSTFSHYTMGWYRQAPGKERELVAAITRSGGSTYYADSVKARFTISRDNAKNNVYLQMTSLNPEDSAVYYCAATRQWNILRYDYWGQGTLVTVSS | low polyreactivity
9 | QVQLVESGGGLVQAGGSLRLSCAASGSTFSHYTMGWYRQAPGKERQLVAAINYGGASTYDADSVKGRFTISRDNAKNTVYLQMNSLKPEDTAVYYCAAAYRPSEQYNYWGQGTQVTVSS | low polyreactivity
10 | QVQLVESGGGLVQAGGSLRLSCAASGSTFSINAMGWYRPAPGKERELVAAITWRGTRTYYADSVKGRFTISRDNAKNTVYLQMNSLKPEDTAVYYCAATGSGQSSYYYWGQGTQVTVSS | high polyreactivity
11 | QVQLVESGGGLVQAGGSLRLSCAASGSTFSIYAMGWYRQAPGKERELVAAISFSDDSTYYADSVKGRFTISRDNAKNTVYLQMNSLKPEDTAVYYCAAEGYWGQPFDYDGALEYWGQGTQVTVSS | high polyreactivity
12 | QVQLVESGGGLVQAGGSLRLSCAASGSTFSIYAMGWYRQAPGKERELVAAISGSGSRTYYADSVKGRFTISRDNAKNTVYLQMNSLKPEDTAVYYCAARGRHRDGFDFNYWGQGTQVTVSS | high polyreactivity
13 | QVQLVESGGGLVQAGGSLRLSCAASGSTFSKYAMGWYRQAPGKERELVAAITRTTGRTYYADSVKGRFSISRDNAKNTVYLHMNSLKPEDTAVDYCAARSPYYRAYKYDYWGQGTQVTVSS | high polyreactivity
14 | QVQLVESGGGLVQAGGSLRLSCAASGSTFSLNDMGWYRQAPGKERQLVAAITGRGTRTYYADSVKGRFTISRDNAKNNVYLQMNSLKPEDTAVYYCAIDYPRGSPYGYNYWVQGTQVTVSS | high polyreactivity
15 | QVQLVESGGGLVQAGGSLRLSCAASGSTFSLYAMGWYRQAPGKERELVAAITRSGGGTHYADSVKGRFTISRDNAKNTVYLQMNSLKPEDTAVYYCAKRQSGYRYDYWGQGTEVTVSS | low polyreactivity
16 | QVQLVESGGGLVQAGGSLRLSCAASGSTFSNNAMGWYRQAPGKERELVASTNYADSVKGRFTISRDNEKNTVYLQMNSLKPEDTAVYYCAAGAYPSWGLDFWGQGTQVTVSS | low polyreactivity
17 | QVQLVESGGGLVQAGGSLRLSCAASGSTFSNYAMGGYRQAPGKERELVAAITSGGTTNYADSVKGRFTISRDNAKNTVYLQMNSLKPEDTAVYYCAKRYSYHVPTHIWVEYYYWGQGTQVTVSS | low polyreactivity
18 | QVQLVESGGGLVQAGGSLRLSCAASGSTFSPYAMGWYRHAPGKERELVAAITSGGGSTYYADSVKGRFTISRDNAKNTVYLQMNSLKPEDTAVYYCNAYLYYLGGPYDYWGQGTQVTVSS | high polyreactivity
19 | QVQLVESGGGLVQAGGSLRLSCAASGSTFSPYAMGWYRQAPGKERELVAAINYSSGSTYYADSVKGRFTISRDNAKNTVYLQMNSLKPEDTAVYYCANGWYAGYPYDYWGQGTQVTVSS | low polyreactivity
20 | QVQLVESGGGLVQAGGSLRLSCAASGSTFSPYAMGWYRQAPGKERELVADISWPGGTTYYADSVKGRFTISRDNAKNTVYLQMNSLKPEVTAVYYCAVTYWDYTFQITYEYWGQGTQVTVSS | low polyreactivity
21 | QVQLVESGGGLVQAGGSLRLSCAASGSTFSPYAMGWYRQAPGKERELVAGISRGTSTNYADSVKGRFTISRDNAKNTVYLQMNSLKPVDTAVYYCAARAYHRYLPGYRVRFGDYYYWGQGTQVTVSS | high polyreactivity
22 | QVQLVESGGGLVQAGGSLRLSCAASGSTFSPYAMVWYRQEPGKERELVAAITWSGGSTYYADSVKGRFTISRDNAKNSVYLQMNSLKPEDTAVYYCNAVPYLSIEYDYWGQGTQVTVSS | high polyreactivity

Row | Sequence | polyreactivity (PSR sort gate)
23 | QVQLVESGGGLVQAGGSLRLSCAASGSTFSQYAMGWYRQAPGKETELVAVITRSGGSTYYADSVKGRFTISRDNAKNTVYLQMNSLKPEDTAVYYCAARSGRYKGDYWGQGTQVTVSS | low polyreactivity
24 | QVQLVESGGGLVQAGGSLRLSCAASGSTFSQYVMGWYRQAPGKERELVAAISSGGSTYYADSVKGRFTISRDNAKNTVYLQMNSLKPEDTAVYYCAAKYDGSYVGLYWYSMNYWGQGTQVTVSS | low polyreactivity
25 | QVQLVESGGGLVQAGGSLRLSCAASGSTFSRNAMGWYRQAPGKERELVAAISYRGGSTYYADSVKGRFTISRDNAKNTVYLQMNSLKPEDTAVYYCNADVGWRAPDYGGYDYWGQGTQVTVSS | high polyreactivity
26 | QVQLVESGGGLVQAGGSLRLSCAASGSTFSRNAMGWYRQAPGKERELVAAITSSGGSTYYADSVKGRFTISRDNAKNTVYLQMNSLKPEDTAVYYCAAPRRRHFDYWGQGTQVTVSS | high polyreactivity
27 | QVQLVESGGGLVQAGGSLRLSCAASGSTFSRNAMGWYRQAPGKERELVASITRGGSTYADSVKGRFTISRDNAKNTVYLQMNSLKPEDTAVYYCAKSVTGWRGLWYTPRNYYWGQGTQVTVSS | high polyreactivity
28 | QVQLVESGGGLVQAGGSLRLSCAASGSTFSRYAMGWYRQAPGKERDLVAAISWGGNTYYADSVKGRFTISRDNAKNTVYLQMNSLKPEDTAVYYCNRYSKLYNTMDYWGQGTQVTVSS | high polyreactivity
29 | QVQLVESGGGLVQAGGSLRLSCAASGSTFSRYAMGWYRQAPGKERELVAAISRGGNTYYADSVKGRFTISRDNAKNTVYLQMNSLKPEDTAVYYCNRYSKLYNTMDYWGQGTQVTVSS | high polyreactivity
30 | QVQLVESGGGLVQAGGSLRLSCAASGSTFSRYAMGWYRQAPGKERELVAAISWGGNTYYADSVKGRFTISRDNAKNTVYFQMNSLKPEDTALYYCATEVRYQGWRDYWGQVTQVTVSS | high polyreactivity
31 | QVQLVESGGGLVQAGGSLRLSCAASGSTFSRYAMGWYRQAPGKERELVAAISWGGNTYYADSVKGRFTISRDNAKNTVYLQMNSLKPEDTAVYYCNRYTKLYNTMDYWGQGTQVTVSS | high polyreactivity
32 | QVQLVESGGGLVQAGGSLRLSCAASGSTFSRYAMGWYRQAPGKERELVAAITRSGGGTHYADSVKGRFTISRDNAKNTVYLQMNSLKPEDTAVYYCNVAGVLYPFVSYDYWGQGTQVTVSS | low polyreactivity
33 | QVQLVESGGGLVQAGGSLRLSCAASGSTFSRYTMGWYRQAPGKERELVAAIRRSGASTYYADSVKGRFTISRDNAKNTVYLQMNSLKPEDTAVYYCAVGRYRYGYWGQGTQVTVSS | high polyreactivity
34 | QVQLVESGGGLVQAGGSLRLSCAASGSTFSRYTMGWYRQAPGKERELVASITRGGSTNYADSVKGRFTISRDNAKNTVYLQMNSLKPEDTAVYYCAARTARVSRYDYWGQGTQVTVSS | high polyreactivity
35 | QVQLVESGGGLVQAGGSLRLSCAASGSTFSSNAMGWYRQAPGKERELVAAISSGGSTNYADSVKGRFTISRDNAKNTVYLQMNSLKPEDTAVYYCAADRSPEYYWGQGTQVTVSS | low polyreactivity
36 | QVQLVESGGGLVQAGGSLRLSCAASGSTFSSYAMGWYRPAPGKERELVARITSGGSTYYADSVKGRFTISRDNAKNTVYLQMNSLKPEDTAVYYCAARGYYYRSRVSQFKYDYWGQGTQVTVSS | high polyreactivity
37 | QVQLVESGGGLVQAGGSLRLSCAASGSTFSSYAMGWYRQAPGKERELVAAISTSGGRTYYADSVKGRFTISRDNAKNTVYLQMNSLKPEDTAVYYCAKKGIGYVRYYYWGQGTQVTVSS | high polyreactivity
38 | QVQLVESGGGLVQAGGSLRLSCAASGSTFSSYAMGWYRQAPGKERELVAAITSGGSTNYADSVKGRFTISRDNAKNTVYLQMNSLKPEDTAVYYCNAQINDFIFVYDYWGQGTQVTVSS | low polyreactivity
39 | QVQLVESGGGLVQAGGSLRLSCAASGSTFSSYGMGWYRQAPGKERELVASITIRGGSTYYADSVKGRFTISRDNAKNTVYLQMNSLKPEDTAVYYCAADVTNRGTWVIYGYYYWGQGTQVTVSS | low polyreactivity
40 | QVQLVESGGGLVQAGGSLRLSCAASGSTFSSYTMGWYRQAPGKERELVATINSRGDNTYYADSVKGRFTISRDNAKNTVYLQMNSLKPEDTAVYYCAARSRRHDFDYWGQGTQVTVSS | high polyreactivity
41 | QVQLVESGGGLVQAGGSLRLSCAASGSTFSTNAMGWYRQAPGKERELVARISAGRTNYADSVKGRFTISRDNAKNTVYLQMNSLKPEDTAVYYCNADYQYNRYSRVVGGHYYWGQGTQVTVSS | low polyreactivity
42 | QVQLVESGGGLVQAGGSLRLSCAASGSTFSTYAMGWYRQAPGKERELVAAIRWSGGSTYYADSVKGRFTISRDNAKNTVYLQMNSLKPEDTAVYYCATDAPDRTDSDSGFDAGYDYWGQGTQVTLSS | low polyreactivity
43 | QVQLVESGGGLVQAGGSLRLSCAASGSTFSTYAMGWYRQAPGKERELVAAITSSGGSTYYADSVKGRFTISRDNAKNTVYLQMNSLKPEDTAVYYCAAGRGYWWWYGYDYWGQGTQVTVSS | low polyreactivity
